Measurements reported in the RNAGym collection of RNA variant scans (doi:10.7554/elife.90254).

B1: LINE1-mini (parent)
chain: GGCAGAGCUCAACACAGCGUGGCAAAGUGGCUGUGGCUAGACUGCC

Variants of: B1
Assay: self-cleavage, relative activity (ratio to wild type); higher = more cleavage; in vitro, sequencing; the parent is a self-cleaving ribozyme

Q: Which self-cleavage does the source give for GGCAGAGCUCAACAUAGCAUGGCAAAGUGGCUGUGGCUAGACUGCC here?
A: 0.98

Q: For GGCAGAGCUCAACAUAGCCUGGCAAAGUGGCUGUGGCUAGACUGCC, which self-cleavage is on record?
A: 1.39

Q: For GGCAGAGCUCAACAUAGCUUGGCAAAGUGGCUGUGGCUAGACUGCC, which self-cleavage is on record?
A: 0.87

Q: For GGCAGAGCUCAACAUAGCGUGGCAAAGUGGCUGUGGCUAGACUGCG, which self-cleavage is on record?
A: 0.33

Q: For GGCAGAGCUCAACAUAGCGUGGCAAAGUGGCUGUGGCUAGACUGCU, which self-cleavage is on record?
A: 0.43

Q: Which self-cleavage does the source give for GGCAGAGCUCAACAUAGCGUGGCAAAGUGGCUGUGGCUAGACUGCA here?
A: 0.92

Q: With GGCAGAGCUCAACAUAGCGUGGCAAAGUGGCUGUGGCUAGGCUGCC as the variant, how does the self-cleavage read?
A: 0.25

Q: Which self-cleavage does the source give for GGCAGAGCUCAACAUAGCGUGGCAAAGUGGCUGUGGCUAGCCUGCC here?
A: 0.08

Q: For GGCAGAGCUCAACAUAGCGUGGCAAAGUGGCUGUGGCUAGUCUGCC, which self-cleavage is on record?
A: 0.33

Q: For GGCAGAGCUCAACAUAGAGUGGCAAAGUGGCUGUGGCUAGACUGCC, which self-cleavage is on record?
A: 0.09

Q: For GGCAGAGCUCAACAUAGGGUGGCAAAGUGGCUGUGGCUAGACUGCC, which self-cleavage is on record?
A: 0.07

Q: With GGCAGAGCUCAACAUAGUGUGGCAAAGUGGCUGUGGCUAGACUGCC as the variant, how does the self-cleavage read?
A: 0.47

Q: For GGCAGAGCUCAACAGAGCGUGGCAAAGUGGCAGUGGCUAGACUGCC, which self-cleavage is on record?
A: 0.05

Q: With GGCAGAGCUCAACAGAGCGUGGCAAAGUGGCGGUGGCUAGACUGCC as the variant, how does the self-cleavage read?
A: 0.04

Q: Which self-cleavage does the source give for GGCAGAGCUCAACAGAGCGUGGCAAAGUGGCCGUGGCUAGACUGCC here?
A: 0.03

Q: Which self-cleavage does the source give for GGCAGAGCUCAACAUAGCGUAGCAAAGUGGCUGUGGCUAGACUGCC here?
A: 1.23

Q: With GGCAGAGCUCAACAUAGCGUCGCAAAGUGGCUGUGGCUAGACUGCC as the variant, how does the self-cleavage read?
A: 1.81

Q: With GGCAGAGCUCAACAUAGCGUUGCAAAGUGGCUGUGGCUAGACUGCC as the variant, how does the self-cleavage read?
A: 1.46

Q: For GGCAGAGCUCAACAGAGCGUGACAAAGUGGCUGUGGCUAGACUGCC, which self-cleavage is on record?
A: 0.15

Q: For GGCAGAGCUCAACAGAGCGUGCCAAAGUGGCUGUGGCUAGACUGCC, which self-cleavage is on record?
A: 0.03

Q: Which self-cleavage does the source give for GGCAGAGCUCAACAGAGCGUGUCAAAGUGGCUGUGGCUAGACUGCC here?
A: 0.3

Q: For GGCAGAGCUCAACAGAGCGUGGCAAAGUGGCUGUGGCUAGACCGCC, which self-cleavage is on record?
A: 0.03

Q: With GGCAGAGCUCAACAGAGCGUGGCAAAGUGGCUGUGGCUAGACAGCC as the variant, how does the self-cleavage read?
A: 0.02

Q: For GGCAGAGCUCAACAGAGCGUGGCAAAGUGGCUGUGGCUAGACGGCC, which self-cleavage is on record?
A: 0

Q: For GGCAGAGCUCAACAUAGCGUGGCAAAGUCGCUGUGGCUAGACUGCC, which self-cleavage is on record?
A: 1.59

Q: With GGCAGAGCUCAACAUAGCGUGGCAAAGUAGCUGUGGCUAGACUGCC as the variant, how does the self-cleavage read?
A: 1.1

Q: For GGCAGAGCUCAACAGAGCGUGGCAAAGUGGCUGUGGCUAGACUACC, which self-cleavage is on record?
A: 0.03

Q: With GGCAGAGCUCAACAGAGCGUGGCAAAGUGGCUGUGGCUAGACUUCC as the variant, how does the self-cleavage read?
A: 0.03

Q: With GGCAGAGCUCAACAGAGCGUGGCAAAGUGGCUGUGGCUAGACUCCC as the variant, how does the self-cleavage read?
A: 0.04

Q: Which self-cleavage does the source give for GGCAGAGCUCAACAGAGCUUGGCAAAGUGGCUGUGGCUAGACUGCC here?
A: 0.03

Q: With GGCAGAGCUCAACAGAGCAUGGCAAAGUGGCUGUGGCUAGACUGCC as the variant, how does the self-cleavage read?
A: 0.07

Q: For GGCAGAGCUCAACAGAGCCUGGCAAAGUGGCUGUGGCUAGACUGCC, which self-cleavage is on record?
A: 0.13

Q: Which self-cleavage does the source give for GGCAGAGCUCAACAUAGCGUGGCUAAGUGGCUGUGGCUAGACUGCC here?
A: 0.32

Q: For GGCAGAGCUCAACAUAGCGUGGCCAAGUGGCUGUGGCUAGACUGCC, which self-cleavage is on record?
A: 0.25

Q: With GGCAGAGCUCAACAUAGCGUGGCGAAGUGGCUGUGGCUAGACUGCC as the variant, how does the self-cleavage read?
A: 1.53

Q: For GGCAGAGCUCAACAGAGCGUGGCAAAGUUGCUGUGGCUAGACUGCC, which self-cleavage is on record?
A: 0.06

Q: With GGCAGAGCUCAACAGAGCGUGGCAAAGUAGCUGUGGCUAGACUGCC as the variant, how does the self-cleavage read?
A: 0.09

Q: For GGCAGAGCUCAACAGAGCGUGGCAAAGUCGCUGUGGCUAGACUGCC, which self-cleavage is on record?
A: 0.1

Q: With GGCAGAGCUCAACAUAGCGUGGCAAAGUGGCUGUGGCUAGAAUGCC as the variant, how does the self-cleavage read?
A: 0.08

Q: With GGCAGAGCUCAACAUAGCGUGGCAAAGUGGCUGUGGCUAGAUUGCC as the variant, how does the self-cleavage read?
A: 0.11

Q: With GGCAGAGCUCAACAUAGCGUGGCAAAGUGGCUGUGGCUAGAGUGCC as the variant, how does the self-cleavage read?
A: 0.09

Q: Which self-cleavage does the source give for GGCAGAGCUCAACAGAGCGUGGCAAAGCGGCUGUGGCUAGACUGCC here?
A: 0.04

Q: For GGCAGAGCUCAACAGAGCGUGGCAAAGAGGCUGUGGCUAGACUGCC, which self-cleavage is on record?
A: 0.04

Q: For GGCAGAGCUCAACAGAGCGUGGCAAAGGGGCUGUGGCUAGACUGCC, which self-cleavage is on record?
A: 0.04

Q: With GGCAGAGCUCAACAGAUCGUGGCAAAGUGGCUGUGGCUAGACUGCC as the variant, how does the self-cleavage read?
A: 0.05

Q: For GGCAGAGCUCAACAGAACGUGGCAAAGUGGCUGUGGCUAGACUGCC, which self-cleavage is on record?
A: 0.05

Q: For GGCAGAGCUCAACAGACCGUGGCAAAGUGGCUGUGGCUAGACUGCC, which self-cleavage is on record?
A: 0.04

Q: Which self-cleavage does the source give for GGCAGAGCUCAACAGAGCGUGGCAAAGUGGCUGUGGCUAAACUGCC here?
A: 0.08

Q: Which self-cleavage does the source give for GGCAGAGCUCAACAGAGCGUGGCAAAGUGGCUGUGGCUACACUGCC here?
A: 0.03

Q: Which self-cleavage does the source give for GGCAGAGCUCAACAGAGCGUGGCAAAGUGGCUGUGGCUAUACUGCC here?
A: 0.09

Q: For GGCAGAGCUCAACAUAGCGUGGCAAAGUGGCUGUGGAUAGACUGCC, which self-cleavage is on record?
A: 0.11

Q: With GGCAGAGCUCAACAUAGCGUGGCAAAGUGGCUGUGGGUAGACUGCC as the variant, how does the self-cleavage read?
A: 0.08

Q: For GGCAGAGCUCAACAUAGCGUGGCAAAGUGGCUGUGGUUAGACUGCC, which self-cleavage is on record?
A: 0.11

Q: With GGCAGAGCUCAACAGAGCGUGGCAAAGUGGCUGGGGCUAGACUGCC as the variant, how does the self-cleavage read?
A: 0.02

Q: With GGCAGAGCUCAACAGAGCGUGGCAAAGUGGCUGCGGCUAGACUGCC as the variant, how does the self-cleavage read?
A: 0.03

Q: With GGCAGAGCUCAACAGAGCGUGGCAAAGUGGCUGAGGCUAGACUGCC as the variant, how does the self-cleavage read?
A: 0.52
